Experimental findings from patent US20140378536A1 (VALTED, published 2014) are described below.

This assay has as its target T1, FLAG-tagged PARIS (full-length PARIS, ZNF746, in pCMV-Tag2A) (human, UniProt Q6NUN9 1-644).
T1 construct: Expressed in SH-SY5Y cells from cDNA IMAGE:30347892; The construct limits it prints (1-644, 322-644) match the 644-residue human entry; also called FLAG-PARIS; pCMV-FLAG-PARIS; not shown: N-terminal FLAG tag of vector pCMV-Tag2A
Kind of assay: co-immunoprecipitation, IP of FLAG-PARIS (FIG. 20). How it is done: For co-immunoprecipitation from cell cultures, SH-SY5Y cells were transfected with 2 μg of each plasmid, unless otherwise indicated.

T1 sequence (Q6NUN9 whole entry): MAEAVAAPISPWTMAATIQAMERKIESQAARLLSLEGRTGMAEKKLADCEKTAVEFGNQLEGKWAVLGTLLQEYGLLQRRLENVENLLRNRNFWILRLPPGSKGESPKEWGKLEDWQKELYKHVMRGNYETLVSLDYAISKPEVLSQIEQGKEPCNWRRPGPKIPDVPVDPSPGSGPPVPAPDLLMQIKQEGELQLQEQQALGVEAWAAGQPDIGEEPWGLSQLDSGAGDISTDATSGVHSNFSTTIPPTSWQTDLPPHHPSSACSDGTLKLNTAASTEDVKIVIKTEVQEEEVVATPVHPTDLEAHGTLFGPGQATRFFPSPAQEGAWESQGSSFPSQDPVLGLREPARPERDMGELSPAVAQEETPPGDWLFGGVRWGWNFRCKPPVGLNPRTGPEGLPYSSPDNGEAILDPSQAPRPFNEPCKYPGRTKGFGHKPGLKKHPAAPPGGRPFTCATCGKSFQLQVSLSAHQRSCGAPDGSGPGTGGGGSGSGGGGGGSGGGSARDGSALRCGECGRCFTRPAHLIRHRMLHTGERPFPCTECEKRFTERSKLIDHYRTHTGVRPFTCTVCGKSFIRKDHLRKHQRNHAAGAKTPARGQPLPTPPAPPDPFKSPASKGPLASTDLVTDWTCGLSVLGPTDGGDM

B1: HA-tagged parkin truncation, amino acids 1-198 (UBL-SH) (other, UniProt O60260 1-198, looked up)
chain: MIVFVRFNSSHGFPVEVDSDTSIFQLKEVVAKRQGVPADQLRVIFAGKELRNDWTVQNCDLDQQSIVHIVQRPWRKGQEMNATGGDDPRNAAGGCEREPQSLTRVDLSSSVLPGDSVGLAVILHTDSRKDSPPAGSPAGRSIYNSFYVYCKGPCQRVQPGKLRVQCSTCRQATLTLTQGPSCWDDVLIPNRMSGECQS
notes: range 1-198; also called N-terminal UBL-SH domain; not shown: HA tag of vector pRK5-HA
As for B1, the binding result is “no binding”.
